Data on four molecules can be found in patent US6881557 (ARROWSMITH TECHNOLOGY LICENSING, dated 2005).

The target in assay [1] is T1, human glutamic acid decarboxylase 65 kilodalton isoform (human, UniProt Q05329 1-585).
T1 construct: also called GAD65; antigen
The experiment in a line: immunoprecipitation of 35S-methionine labelled GAD65 with Fab and Protein G-Sepharose; midpoint read visually.

Assay [2] deals with T2, CD28Ig (human, UniProt P10747 19-152).
T2 construct: also called GD28Ig; human CD28; not shown: Ig part of CD28Ig; not described
The experiment in a line: ELISA on CD28Ig coated plates (FIG. 11 legend). On the technique in general: In an ELISA, binding on a coated surface is turned into a signal by an enzyme label.

The target in assay [3] is T2, CD28Ig. The experiment in a line: ELISA, CD28Ig coated plates, detection with anti-human kappa immunoconjugate.
For assay [4], the target named is T3, chicken lysozyme (chicken, UniProt P00698 19-147).
T3 construct: also called chicken lysozyme antigen
T3 sequence (P00698 19-147 limits assumed): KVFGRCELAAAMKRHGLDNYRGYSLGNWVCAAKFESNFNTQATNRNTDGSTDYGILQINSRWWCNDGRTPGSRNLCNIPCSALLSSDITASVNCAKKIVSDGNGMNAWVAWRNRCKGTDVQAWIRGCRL
Description: fluorescence quench titration (FIG. 7 legend); FIG. 7 legend, bound only.

Assay [5] concerns the target T3, chicken lysozyme. The experiment in a line: intrinsic tryptophan fluorescence quench titration, 200 nM Fab titrated with lysozyme in solution.
Assay [6] has as its target T3, chicken lysozyme. Description: fluorescence quench titration; reference is the literature Kd of D1.3 IgG (4 nM).

T1 sequence (Q05329 whole entry, canonical isoform): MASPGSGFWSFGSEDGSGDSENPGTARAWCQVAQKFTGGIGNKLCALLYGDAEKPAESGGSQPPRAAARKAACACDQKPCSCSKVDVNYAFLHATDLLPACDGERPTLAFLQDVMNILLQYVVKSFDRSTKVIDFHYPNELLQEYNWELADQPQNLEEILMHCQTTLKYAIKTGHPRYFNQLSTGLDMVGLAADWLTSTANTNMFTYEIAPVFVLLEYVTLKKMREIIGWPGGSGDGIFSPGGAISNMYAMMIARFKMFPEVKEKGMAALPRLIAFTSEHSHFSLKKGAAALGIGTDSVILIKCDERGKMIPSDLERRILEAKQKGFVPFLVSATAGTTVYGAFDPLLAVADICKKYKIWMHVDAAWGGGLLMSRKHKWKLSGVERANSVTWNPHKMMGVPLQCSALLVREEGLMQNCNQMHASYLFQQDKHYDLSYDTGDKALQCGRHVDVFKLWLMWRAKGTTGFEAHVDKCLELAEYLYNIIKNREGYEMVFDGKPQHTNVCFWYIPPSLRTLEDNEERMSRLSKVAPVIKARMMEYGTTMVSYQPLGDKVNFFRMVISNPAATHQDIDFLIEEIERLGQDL

B1: Fab fragment comprised of mouse NGAD65 variable and constant domains (Fab, V domains shown)
VH: QVQLQQPGAELVKPGASVKMSCKASGYRFSSYNMHWVKQTPGQGLEWIGAIYPRSGDTSYNQKFKGKATLTADKSSSTAYMQLGSLTSEDSAVYYCVRSYDYDAPFAFWGQGTLVTVSA
VL: VLTQTPLSLPVSLGDQASISCRSSQSLEHNNGNTYLNWYLQKPGQSPQLLIYRVSNRFSGGLDRFSGSGSGTDFTLKISRVEAEDLGVYFCLQVTHVPFTFGSGTKLEIKR
notes: also called mouse Fab; mouse NGAD65 Fab
B1 yielded an EC50 in assay [1] of 0.36 pM.

B2: humanized anti-human CD28 (Hu.9.3) Fab fragment (Fab, V domains shown)
VH: EVQLVQSGGGLVQPGGSLRLSCAGSGFTFSDYGVHWVRQAPGKGLEWVSAIWAGGGTNYASSVMGRFTISRDNAKNSLYLQMNSLRAEDMAVYYCARDKGYSYYYSMDYWGQGTLVTVSS
VL: DIVMTQSPDSLAVSLGERATINCRASESVEYYVTSLMAWYQQKPGQPPKLLIYAASNVESGVPDRFSGSGSGTNFSLTISSLQAEDVAVYYCQQSRKVPYTFGQGTKLEIKR
notes: also called humanized 9.3
On to B2, for which, in the assay with CD28Ig [2], the Ka was over 1e+06 M⁻¹. For the same molecule, in the assay with CD28Ig [3], it took 630 nM to reach a half-maximal effect (EC50).

B3: hybrid Fab fragment comprised of human constant domains, mouse 9.3 heavy chain variable domain, and humanized light chain variable domain (Fab, V domains shown)
VH: EVKLQQSGPGLVTPSQSLSITCTVSGFSLSDYGVHWVRQSPGQGLEWLGVIWAGGGTNYNSALMSRKSISKDNSKSQVFLKMNSLQADDTAVYYCARDKGYSYYYSMDYWGQGTSVTVSS
VL: B2 VL
B3 yielded an EC50 with CD28Ig [3] of 30 nM.

B4: humanized D1.3 Fab (Fab, V domains shown)
VH: QVQLQESGPGLVKPSETLSLTCTVSGGSVSGYGVNWIRQPPGKGLEWIGMIWGDGNTDYNSSLKSRVTISVDTSKNQFSLKLSSVTAADTAVYYCARERDYRLDYWGQGTLVTVSS
VL: AIRMTQSPFSLSASVGDRVTITCRASGNIHNYLAWYQQKPAKAPKLFIYYTTTLADGVPSRFSGSGSGTDYTLTISSLQPEDFATYYCQHFWSTPRTFGGGTKVEIKR
notes: also called SHuD1.3; humanized D1.3 antibody
B4 yielded a Ka with chicken lysozyme [4] of 4.3e+07 M⁻¹. In addition, the equilibrium dissociation constant (Kd) in the assay with chicken lysozyme [5] worked out at 23 nM. Besides, in the assay with chicken lysozyme [6], the “factor by which affinity is diminished relative to the subject mouse antibody D1.3” value was under 6 fold.

Usually EC50 stands for the midpoint of the concentration-response curve. Read a high EC50 as a need for much substance. What is called Kd is a measure of binding affinity in units of concentration.
